Source: publication PMC11446282
Like-named read-outs stand apart in the source and are kept apart here.

B1: PME1: full-length PME1 protein expressed in BL21(DE3) (protein)
chain: MSALEKSMHLGRLPSRPPLPGSGGSQSGAKMRMGPGRKRDFSPVPWSQYFESMEDVEVENETGKDTFRVYKSGSEGPVLLLLHGGGHSALSWAVFTAAIISRVQCRIVALDLRSHGETKVKNPEDLSAETMAKDVGNVVEAMYGDLPPPIMLIGHSMGGAIAVHTASSNLVPSLLGLCMIDVVEGTAMDALNSMQNFLRGRPKTFKSLENAIEWSVKSGQIRNLESARVSMVGQVKQCEGITSPEGSKSIVEGIIEEEEEDEEGSESISKRKKEDDMETKKDHPYTWRIELAKTEKYWDGWFRGLSNLFLSCPIPKLLLLAGVDRLDKDLTIGQMQGKFQMQVLPQCGHAVHEDAPDKVAEAVATFLIRHRFAEPIGGFQCVFPGC
B2: Arpp19: full-length Arpp19 protein (S62E in the SPR method) (protein, UniProt P56211 1-112, looked up, variant S62E)
chain: MSAEVPEAASAEEQKEMEDKVTSPEKAEEAKLKARYPHLGQKPGGSDFLRKRLQKGQKYFDEGDYNMAKAKMKNKQLPTAAPDKTEVTGDHIPTPQDLPQRKPSLVASKLAG
modifications: full-length
B3: PME1 wt (protein, UniProt Q9Y570 2-386, looked up)
Protein phosphatase …: SALEKSMHLGRLPSRPPLPGSGGSQSGAKMRMGPGRKRDFSPVPWSQYFESMEDVEVENETGKDTFRVYKSGSEGPVLLLLHGGGHSALSWAVFTAAIISRVQCRIVALDLRSHGETKVKNPEDLSAETMAKDVGNVVEAMYGDLPPPIMLIGHSMGGAIAVHTASSNLVPSLLGLCMIDVVEGTAMDALNSMQNFLRGRPKTFKSLENAIEWSVKSGQIRNLESARVSMVGQVKQCEGITSPEGSKSIVEGIIEEEEEDEEGSESISKRKKEDDMETKKDHPYTWRIELAKTEKYWDGWFRGLSNLFLSCPIPKLLLLAGVDRLDKDLTIGQMQGKFQMQVLPQCGHAVHEDAPDKVAEAVATFLIRHRFAEPIGGFQCVFPGC

Tests used:
[1] = target: T1, B55α (Homo sapiens, UniProt P63151); test: Surface plasmon resonance with captured Twin-Strep B55α; type: binding; details: same SPR approach as for B55i; fig. S15
T1 construct: His; made in house; host or cells: HEK293 cells
T1 sequence (P63151 1-447): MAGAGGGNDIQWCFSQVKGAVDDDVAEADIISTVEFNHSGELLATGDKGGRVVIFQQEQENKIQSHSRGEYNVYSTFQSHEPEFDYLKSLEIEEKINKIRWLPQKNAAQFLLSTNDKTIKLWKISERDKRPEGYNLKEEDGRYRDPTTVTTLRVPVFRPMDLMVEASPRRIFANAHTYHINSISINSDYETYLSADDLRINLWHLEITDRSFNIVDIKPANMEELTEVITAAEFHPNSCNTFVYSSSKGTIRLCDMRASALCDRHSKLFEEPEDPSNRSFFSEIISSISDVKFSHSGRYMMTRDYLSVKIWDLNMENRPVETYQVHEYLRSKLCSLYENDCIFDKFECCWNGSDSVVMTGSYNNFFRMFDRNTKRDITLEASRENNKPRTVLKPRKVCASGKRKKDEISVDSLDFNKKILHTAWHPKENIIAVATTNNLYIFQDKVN

[2] = system: PP2A-B55 isoforms; type: binding, human; details: MS, n = 4; for log2_ratio WT_M: YFP-PME1 wild-type versus mutant IP; for log2_ratio WT_C: wild-type versus control IP
Description: Standard cloning techniques were used throughout. Point mutations were introduced by whole plasmid polymerase chain reaction (PCR). All constructs were fully sequenced. Synthetic DNA was purchased from GeneArt, Life Technologies and cloned into pcDNA5/FRT/TO (Invitrogen) expression vector containing YFP, resulting in the indicated YFP fusion proteins. These constructs were transiently transfected into HeLa cells 24 hours before harvesting cells. Cells were lysed in lysis buffer [50 mM tris-HCl (pH 7.5), 50 mM NaCl, 1 mM EDTA, 1 mM […], and 0.1% NP-40]. Complexes were immunoprecipitated at 4°C in lysis buffer with green fluorescent protein (GFP)–Trap (ChromoTek) and washed in lysis buffer. Precipitated protein complexes were washed three times in lysis buffer, eluted in 2× SDS sample buffer, and subjected to Western blotting or MS as indicated.
Pull-downs were analyzed on a Q-Exactive Plus quadrupole or Fusion Orbitrap Lumos mass spectrometer (Thermo Fisher Scientific) equipped with Easy-nLC 1000 or […] (Thermo Fisher Scientific) and nanospray source (Thermo Fisher Scientific). Peptides were resuspended in 5% methanol/1% formic acid and loaded onto a trap column [1 cm in length, 100 μm in inner diameter, ReproSil, C18 AQ 5-μm 120-Å pore (Dr. Maisch, Ammerbuch, Germany)] vented to waste via a micro-tee and eluted across a fritless analytical resolving column (35 cm in length, 100 μm in inner diameter, ReproSil, C18 AQ 3-μm 120-Å pore) pulled in-house (Sutter P-2000, Sutter Instruments, San Francisco, CA) with a 45-min gradient of 5 to 30% liquid chromatography–MS (LC-MS) buffer B (LC-MS buffer A: 0.0625% formic acid and 3% acetonitrile (ACN); LC-MS buffer B: 0.0625% formic acid, 95% ACN Q-Exactive Plus quadrupole or 0.0625% formic acid and 80% ACN Fusion Orbitrap Lumos mass).
Static modifications included carbamidomethylcysteine, and variable modifications included oxidized methionine and STY phosphorylation. Searches were filtered using orthogonal measures including mass measurement accuracy (±3 parts per million), Xcorr for charges from +2 to +4, and dCn targeting a <1% false discovery rate at the peptide level. Quantification of LC-MS/MS spectra was performed using MassChroQ ([57]) and the iBAQ method ([58]). All data were analyzed using R 4.3.0. Missing values were imputed from a normal distribution. To be included in further analysis, proteins had to be identified with more than 1 total peptide and quantified in two or more replicates of each sample. In each dataset, the abundance of the protein of interest was normalized to be equal across all samples. Statistical analyses were done using a two-tailed Student’s t test.

[3] = prey 2ABA_HUMAN (PPP2R2A, B55 alpha)
[4] = prey 2ABB_HUMAN (PPP2R2B, B55 beta)
[5] = prey 2ABD_HUMAN (PPP2R2D, B55 delta)
[6] = prey 2ABG_HUMAN (PPP2R2C, B55 gamma)

| Molecule | binding to B55α, affinity range [1] | log2_ratio WT_M ([2]; prey 2AAA_HUMAN (PPP2R1A)) | log2_ratio WT_C ([2]; prey 2AAA_HUMAN (PPP2R1A)) | log2_ratio WT_M ([2]; prey 2AAB_HUMAN (PPP2R1B)) | log2_ratio WT_C ([2]; prey 2AAB_HUMAN (PPP2R1B)) | log2_ratio WT_M [2, 3] | log2_ratio WT_C [2, 3] | log2_ratio WT_M [2, 4] | log2_ratio WT_C [2, 4] | log2_ratio WT_M [2, 5] | log2_ratio WT_C [2, 5] | log2_ratio WT_M [2, 6] | log2_ratio WT_C [2, 6] | log2_ratio WT_M ([2]; prey PP2AA_HUMAN (PPP2CA)) | log2_ratio WT_C ([2]; prey PP2AA_HUMAN (PPP2CA)) | log2_ratio WT_M ([2]; prey PP2AB_HUMAN (PPP2CB)) | log2_ratio WT_C ([2]; prey PP2AB_HUMAN (PPP2CB)) |
| --- | --- | --- | --- | --- | --- | --- | --- | --- | --- | --- | --- | --- | --- | --- | --- | --- | --- |
| B1 | low micromolar | – | – | – | – | – | – | – | – | – | – | – | – | – | – | – | – |
| B2 | low micromolar | – | – | – | – | – | – | – | – | – | – | – | – | – | – | – | – |
| B3 | – | 1.05 | 8.03 | 1.40 | 6.19 | 8.62 | 8.40 | 4.68 | 4.02 | 5.74 | 6.24 | 6.08 | 5.83 | 0.66 | 9.04 | 0.69 | 8.00 |
